Experimental data published in US20200147241A1 (AMICUS THERAPEUTICS, published 2020).

Molecular target: the molecule itself
Experiment: reduced and non-reduced SDS-PAGE and Western blot of 293HEK cell lysate and culture media (homodimer formation)
Description: The formation of disulfide bonded dimers of modified α-GAL was examined in cell lysate and culture media (FIG. 2A). Clones of each α-GAL construct were transiently expressed in 293HEK cell. Cell lysates and culture media were run on 4-12% gradient SDS-PAGE and transferred to nitrocellulose. α-GAL was detected by Western Blotting with rabbit monoclonal anti- α-GAL 1:2000 (abcam ab168341).
Reduced and non-reduced samples were subjected to electrophoresis and Western blotting.

B1: Human α-GAL M51C-G360C (enzyme)
chain: LDNGLARTPTMGWLHWERFCCNLDCQEEPDSCISEKLFMEMAELMVSEGWKDAGYEYLCIDDCWMAPQRDSEGRLQADPQRFPHGIRQLANYVHSKGLKLGIYADVGNKTCAGFPGSFGYYDIDAQTFADWGVDLLKFDGCYCDSLENLADGYKHMSLALNRTGRSIVYSCEWPLYMWPFQKPNYTEIRQYCNHWRNFADIDDSWKSIKSILDWTSFNQERIVDVAGPGGWNDPDMLVIGNFGLSWNQQVTQMALWAIMAAPLFMSNDLRHISPQAKALLQDKDVIAINQDPLGKQGYQLRQGDNFEVWERPLSGLAWAVAMINRQEICGPRSYTIAVASLGKGVACNPACFITQLLPVKRKLGFYEWTSRLRSHINPTGTVLLQLENTMQMSLKDLL
notes: It is the full precursor entry; Transiently expressed in 293HEK cells, tested in cell lysate and culture media; also called M51C-G360C α-GAL; modified α-galactosidase A
  binding result: binds

B2: Human α-GAL D233C-I359C (enzyme)
chain: LDNGLARTPTMGWLHWERFMCNLDCQEEPDSCISEKLFMEMAELMVSEGWKDAGYEYLCIDDCWMAPQRDSEGRLQADPQRFPHGIRQLANYVHSKGLKLGIYADVGNKTCAGFPGSFGYYDIDAQTFADWGVDLLKFDGCYCDSLENLADGYKHMSLALNRTGRSIVYSCEWPLYMWPFQKPNYTEIRQYCNHWRNFADICDSWKSIKSILDWTSFNQERIVDVAGPGGWNDPDMLVIGNFGLSWNQQVTQMALWAIMAAPLFMSNDLRHISPQAKALLQDKDVIAINQDPLGKQGYQLRQGDNFEVWERPLSGLAWAVAMINRQECGGPRSYTIAVASLGKGVACNPACFITQLLPVKRKLGFYEWTSRLRSHINPTGTVLLQLENTMQMSLKDLL
notes: It is the full precursor entry; Transiently expressed in 293HEK cells, tested in cell lysate and culture media; also called D233C-I359C α-GAL; modified α-galactosidase A
  binding result: binds
